Tests used:
[1] = biological target: Flag-hAPRIL (human); assay: SEC; Superdex S200 Increase HR 10/30, PBS 10 ug/ml BSA, 0.7 ml/min; proteins alone or Flag-ligand with a 20-fold mass excess of atacicept; fractions analysed by Western blot; complexes of fractions 10 and 11 concentrated and run again
[2] = biological target: endogenous BAFF (human serum) (human (endogenous in serum)); assay: SEC; 300 ul serum of an atacicept-treated SLE patient (pre-dose, 4 weeks of treatment, 12 weeks after treatment end) fractionated in PBS; BAFF ELISA and non-reducing anti-TACI Western blot of the fractions

Row | stoichiometry N [1] | stoichiometry N [2] | Substance
1 | 3 | – | Flag-hAPRIL (ligand)
2 | – | 3 | endogenous BAFF (human serum) (ligand)

Reference: paper PMC9756848
